Assays:
[1] = target: T1, human PD-1 expressed on cells (human, UniProt Q15116 25-288); assay: flow cytometry (FACS), MFI, CHO cells expressing human PD-1
T1 construct: whole, on cells; also called human PD-1 over-expressed on the CHO cells; Jurkat/NFkB-Luci/PD-1 cells
Description: (§1) Exemplary anti-PD-1/CD137 bi-specific antibodies were analyzed by FACS for their binding properties to human PD-1 and/or human CD137 expressed on CHO cells. Briefly, cultured cells were harvested, counted and cell viability was evaluated using the Trypan Blue exclusion method. Viable cells were then adjusted to 2×10⁶ cells per mL in PBS containing 2% BSA. 100 μL of this cell suspension were further aliquoted per well into a V-bottom 96-well plate. […] After incubation for 2 hours at 4° C., cells were centrifuged (3 min, 1000× g), washed with 250 μL/well BSA-containing FACS Stain Buffer, resuspended and incubated for an additional 1 hour at 4° C. with 100 μL/well fluorochrome-conjugated anti-IgG antibody for detection of the bisepecific antibody. Cells were then washed with 250 μL/well BSA-containing FACS Stain Buffer, resuspended in 100 μL/well FACS Stain Buffer, acquired and analyzed using a FACS machine. Binding of the bispecific antibodies to human PD-1 or human CD137 expressing CHO cells were evaluated and the mean fluorescence intensity is plotted in histograms or dot plots.

[2] = target: T2, human CD137 ECD protein (His tag) (human, UniProt Q07011 24-186); assay: bridging ELISA: human CD137 ECD (His tag) coated, antibody titrated, then human PD-1 ECD (mouse IgG2a Fc tag), HRP anti-mouse IgG2a Fc; A450-A620
T2 construct: extracellular domain; also called recombinant human CD137; not shown: His tag
Description: Exemplary anti-PD-1/CD137 bi-specific antibodies were analyzed by ELISA for their simultaneous binding to recombinant human PD-1 and human CD137. Briefly, human CD137 ECD protein (His tag) was diluted and coated onto an ELISA plate with a volume of 100 μL/well by incubation at 4° C. overnight. The next day, the plate was blocked with PBST-BSA buffer, then serially diluted samples of anti-PD-1/CD137 bi-specific antibodies were pipetted into appropriate wells at 50 μL/well, and the plate was incubated for 1 hour followed by washing. The extracellular domain (ECD) of human PD-1 protein (mouse IgG2a Fc tag) was added into the plate at 50 μL/well. After 1-hour incubation at room temperature, HRP-conjugated anti-Mouse IgG, Fc G2a specific antibody was added into the plate at 100 μL/well. The plate was incubated for 1 hour at room temperature followed by washing. TMB substrate solution was added at 100 μL/well and the color development was stopped by adding 100 uL/well Stop Solution (2N H₂SO₄). Absorbance at 450 nm and 620 nm was read by Tecan F200 Pro plate reader. GraphPad 7.0, “[Agonist] vs. response—Variable slope (four parameters)” was used to plot the binding data and calculate binding EC50 values.

[3] = target: T3, human CD40 expressed on CHO cells (human, UniProt P25942 21-277); assay: FACS on CHO cells expressing human CD40 (MFI)
T3 construct: whole, on cells
Description: as §1, with “Anti-CD40/CD137” for “Exemplary anti-PD-1/CD137”, “CD40” for “PD-1”, “1000×g),” for “1000× g),”

[4] = target: T4, human CD137 expressed on cells (human, UniProt Q07011 24-255); assay: flow cytometry (FACS), MFI, CHO cells expressing human CD137
T4 construct: whole, on cells; also called 4-1BB; TNFRSF9
Description: as §1

T4 sequence (Q07011 24-255): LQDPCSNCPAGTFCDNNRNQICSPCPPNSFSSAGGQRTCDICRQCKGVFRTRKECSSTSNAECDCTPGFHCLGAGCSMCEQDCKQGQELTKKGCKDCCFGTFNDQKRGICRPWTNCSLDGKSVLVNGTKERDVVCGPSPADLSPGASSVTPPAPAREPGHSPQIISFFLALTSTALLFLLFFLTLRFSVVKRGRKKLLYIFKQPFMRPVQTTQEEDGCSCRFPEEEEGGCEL
T1 sequence (Q15116 25-288): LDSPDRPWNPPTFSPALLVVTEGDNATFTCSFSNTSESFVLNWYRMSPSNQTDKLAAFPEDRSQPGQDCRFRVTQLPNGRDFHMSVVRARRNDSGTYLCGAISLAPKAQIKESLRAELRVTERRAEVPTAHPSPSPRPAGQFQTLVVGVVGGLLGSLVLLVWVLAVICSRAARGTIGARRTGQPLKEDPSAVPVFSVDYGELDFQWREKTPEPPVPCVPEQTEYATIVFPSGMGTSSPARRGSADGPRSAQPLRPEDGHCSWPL
T3 sequence (P25942 21-277): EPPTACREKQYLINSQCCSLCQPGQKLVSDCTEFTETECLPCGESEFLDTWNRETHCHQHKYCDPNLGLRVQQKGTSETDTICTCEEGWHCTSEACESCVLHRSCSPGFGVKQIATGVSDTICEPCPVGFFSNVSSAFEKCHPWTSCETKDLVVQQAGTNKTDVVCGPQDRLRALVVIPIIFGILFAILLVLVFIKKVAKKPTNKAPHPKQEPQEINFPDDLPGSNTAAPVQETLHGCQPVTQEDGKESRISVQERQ

| EC50 (read off the curve) [1] | EC50 (read off the curve) [2] | EC50 (read off the curve) [3] | EC50 (read off the curve) [4] | Binder |
| --- | --- | --- | --- | --- |
| ~0.2 µg/mL |  |  | ~0.5 µg/mL | Ly514 (bispecific antibody, human IgG2, kappa, Three-chain format: Ly516 heavy chain fused to Ly1630 light chain; Ly516 light chain; Ly1630 VH-CH1) heavy: QVTLKESGPALVKPTQTLTLTCTFSGFSLSTSGTCVSWIRQPPGKALEWLATICWEDSKGYNPSLKSRLTISKDTSKNQAVLTMTNMDPVDTATYYCARREDSGYFWFPYWGQGTLVTVSSASTKGPSVFPLAPCSRSTSESTAALGCLVKDYFPEPVTVSWNSGALTSGVHTFPAVLQSSGLYSLSSVVTVPSSNFGTQTYTCNVDHKPSNTKVDKTVERKCCVECPPCPAPPVAPSVFLFPPKPKDTLMISRTPEVTCVVVDVSHEDPEVQFNWYVDGVEVHNAKTKPREEQFNSTFRVVSVLTVVHQDWLNGKEYKCKVSNKGLPAPIEKTISKTKGQPREPQVYTLPPSREEMTKNQVSLTCLVKGFYPSDIAVEWESNGQPENNYKTTPPMLDSDGSFFLYSKLTVDKSRWQQGNVFSCSVMHEALHNHYTQKSLSLSPGGGGGSGGGGSGGGGSGGGGSDIQMTQSPSSLSASVGDRVTITCRASQDIRSNLNWYQQKPGGAVKLLIYYTSRLHSGVPSRFSGSGSGTDYTLTISSLQPEDFATYFCQQSEKLPRTFGGGTKVEIRRTVAAPSVFIFPPSDEQLKSGTASVVCLLNNFYPREAKVQWKVDNALQSGNSQESVTEQDSKDSTYSLSSTLTLSKADYEKHKVYACEVTHQGLSSPVTKSFNRGEC light: NIQMTQSPSSLSASVGDRVTITCKAGQNVNNYLAWYQQKPGKAPKVLIFNANSLQTGVPSRFSGSGSGTDFTLTISSLQPEDFATYYCQQYNSWPTFGGGTKVEIKRTVAAPSVFIFPPSDEQLKSGTASVVCLLNNFYPREAKVQWKVDNALQSGNSQESVTEQDSKDSTYSLSSTLTLSKADYEKHKVYACEVTHQGLSSPVTKSFNRGEC QVQLVQSGAEVKKPGASVKVSCKASGYTFAGFEMHWVRQAPGQGLEWMGAIDPKTGGTDYNQKFKDRVTMTRDTSISTAYMELSRLRSDDTAVYYCARDLGYFDVWGQGTLVTVSSASTKGPSVFPLAPSSKSTSGGTAALGCLVKDYFPEPVTVSWNSGALTSGVHTFPAVLQSSGLYSLSSVVTVPSSSLGTQTYICNVNHKPSNTKVDKKVEPKSCDK |
|  |  |  | ~0.1 µg/mL | Ly515 (bispecific antibody, human IgG2, kappa, Three-chain format: Ly1630 heavy chain fused to Ly516 light chain; Ly1630 light chain; Ly516 VH-CH1) heavy: QVQLVQSGAEVKKPGASVKVSCKASGYTFAGFEMHWVRQAPGQGLEWMGAIDPKTGGTDYNQKFKDRVTMTRDTSISTAYMELSRLRSDDTAVYYCARDLGYFDVWGQGTLVTVSSASTKGPSVFPLAPCSRSTSESTAALGCLVKDYFPEPVTVSWNSGALTSGVHTFPAVLQSSGLYSLSSVVTVPSSNFGTQTYTCNVDHKPSNTKVDKTVERKCCVECPPCPAPPVAPSVFLFPPKPKDTLMISRTPEVTCVVVDVSHEDPEVQFNWYVDGVEVHNAKTKPREEQFNSTFRVVSVLTVVHQDWLNGKEYKCKVSNKGLPAPIEKTISKTKGQPREPQVYTLPPSREEMTKNQVSLTCLVKGFYPSDIAVEWESNGQPENNYKTTPPMLDSDGSFFLYSKLTVDKSRWQQGNVFSCSVMHEALHNHYTQKSLSLSPGGGGGSGGGGSGGGGSGGGGSNIQMTQSPSSLSASVGDRVTITCKAGQNVNNYLAWYQQKPGKAPKVLIFNANSLQTGVPSRFSGSGSGTDFTLTISSLQPEDFATYYCQQYNSWPTFGGGTKVEIKRTVAAPSVFIFPPSDEQLKSGTASVVCLLNNFYPREAKVQWKVDNALQSGNSQESVTEQDSKDSTYSLSSTLTLSKADYEKHKVYACEVTHQGLSSPVTKSFNRGEC light: DIQMTQSPSSLSASVGDRVTITCRASQDIRSNLNWYQQKPGGAVKLLIYYTSRLHSGVPSRFSGSGSGTDYTLTISSLQPEDFATYFCQQSEKLPRTFGGGTKVEIRRTVAAPSVFIFPPSDEQLKSGTASVVCLLNNFYPREAKVQWKVDNALQSGNSQESVTEQDSKDSTYSLSSTLTLSKADYEKHKVYACEVTHQGLSSPVTKSFNRGEC QVTLKESGPALVKPTQTLTLTCTFSGFSLSTSGTCVSWIRQPPGKALEWLATICWEDSKGYNPSLKSRLTISKDTSKNQAVLTMTNMDPVDTATYYCARREDSGYFWFPYWGQGTLVTVSSASTKGPSVFPLAPSSKSTSGGTAALGCLVKDYFPEPVTVSWNSGALTSGVHTFPAVLQSSGLYSLSSVVTVPSSSLGTQTYICNVNHKPSNTKVDKKVEPKSCDK |

Second part, the binder before the results:

| Binder | EC50 (read off the curve) [1] | EC50 (read off the curve) [2] | EC50 (read off the curve) [3] | EC50 (read off the curve) [4] |
| --- | --- | --- | --- | --- |
| Ly510 (bispecific antibody, human IgG2, kappa, Anti-PD-1/CD137: Ly516 heavy chain (other constant region than Ly456) fused to Ly1630 scFv (VL-VH); Ly516 light chain) heavy: QVTLKESGPALVKPTQTLTLTCTFSGFSLSTSGTCVSWIRQPPGKALEWLATICWEDSKGYNPSLKSRLTISKDTSKNQAVLTMTNMDPVDTATYYCARREDSGYFWFPYWGQGTLVTVSSASTKGPSVFPLAPCSRSTSESTAALGCLVKDYFPEPVTVSWNSGALTSGVHTFPAVLQSSGLYSLSSVVTVPSSNFGTQTYTCNVDHKPSNTKVDKTVERKCCVECPPCPAPPVAPSVFLFPPKPKDTLMISRTPEVTCVVVDVSHEDPEVQFNWYVDGVEVHNAKTKPREEQFNSTFRVVSVLTVVHQDWLNGKEYKCKVSNKGLPAPIEKTISKTKGQPREPQVYTLPPSREEMTKNQVSLTCLVKGFYPSDIAVEWESNGQPENNYKTTPPMLDSDGSFFLYSKLTVDKSRWQQGNVFSCSVMHEALHNHYTQKSLSLSPGGGGGSGGGGSGGGGSGGGGSDIQMTQSPSSLSASVGDRVTITCRASQDIRSNLNWYQQKPGGAVKLLIYYTSRLHSGVPSRFSGSGSGTDYTLTISSLQPEDFATYFCQQSEKLPRTFGGGTKVEIRGGGGSGGGGSGGGGSGGGGSQVQLVQSGAEVKKPGASVKVSCKASGYTFAGFEMHWVRQAPGQGLEWMGAIDPKTGGTDYNQKFKDRVTMTRDTSISTAYMELSRLRSDDTAVYYCARDLGYFDVWGQGTLVTVSS light: NIQMTQSPSSLSASVGDRVTITCKAGQNVNNYLAWYQQKPGKAPKVLIFNANSLQTGVPSRFSGSGSGTDFTLTISSLQPEDFATYYCQQYNSWPTFGGGTKVEIKRTVAAPSVFIFPPSDEQLKSGTASVVCLLNNFYPREAKVQWKVDNALQSGNSQESVTEQDSKDSTYSLSSTLTLSKADYEKHKVYACEVTHQGLSSPVTKSFNRGEC | ~0.2 µg/mL | ~0.02 µg/mL |  |  |
| Ly253-G2 (antibody, human IgG2, kappa, V domains shown, also called anti-CD40 antibody) VH: not shown VL: DIQMTQSPSSVSASVGDRVTITCRASQGIYSWLAWYQQKPGKAPNLLIYTASTLQSGVPSRFSGSGSGTDFTLTISSLQPEDFATYYCQQANIFPLTFGGGTKVEIKR |  |  | ~0.09 µg/mL |  |
| Ly461 (bispecific antibody, human IgG1, kappa, Three-chain format: Ly1630 heavy chain fused to Ly516 light chain; Ly1630 light chain; Ly516 VH-CH1) heavy: QVQLVQSGAEVKKPGASVKVSCKASGYTFAGFEMHWVRQAPGQGLEWMGAIDPKTGGTDYNQKFKDRVTMTRDTSISTAYMELSRLRSDDTAVYYCARDLGYFDVWGQGTLVTVSSASTKGPSVFPLAPSSKSTSGGTAALGCLVKDYFPEPVTVSWNSGALTSGVHTFPAVLQSSGLYSLSSVVTVPSSSLGTQTYICNVNHKPSNTKVDKKVEPKSCDKTHTCPPCPAPELLGPSVFLFPPKPKDTLMISRTPEVTCVVVDVSHEDPEVKFNWYVDGVEVHNAKTKPREEQYNSTYRVVSVLTVLHQDWLNGKEYKCKVSNKALPAPIEKTISKAKGQPREPQVYTLPPSREEMTKNQVSLTCLVKGFYPSDIAVEWESNGQPENNYKTTPPVLDSDGSFFLYSKLTVDKSRWQQGNVFSCSVMHEALHNHYTQKSLSLSPGGGGGSGGGGSGGGGSGGGGSNIQMTQSPSSLSASVGDRVTITCKAGQNVNNYLAWYQQKPGKAPKVLIFNANSLQTGVPSRFSGSGSGTDFTLTISSLQPEDFATYYCQQYNSWPTFGGGTKVEIKRTVAAPSVFIFPPSDEQLKSGTASVVCLLNNFYPREAKVQWKVDNALQSGNSQESVTEQDSKDSTYSLSSTLTLSKADYEKHKVYACEVTHQGLSSPVTKSFNRGEC light: DIQMTQSPSSLSASVGDRVTITCRASQDIRSNLNWYQQKPGGAVKLLIYYTSRLHSGVPSRFSGSGSGTDYTLTISSLQPEDFATYFCQQSEKLPRTFGGGTKVEIRRTVAAPSVFIFPPSDEQLKSGTASVVCLLNNFYPREAKVQWKVDNALQSGNSQESVTEQDSKDSTYSLSSTLTLSKADYEKHKVYACEVTHQGLSSPVTKSFNRGEC QVTLKESGPALVKPTQTLTLTCTFSGFSLSTSGTCVSWIRQPPGKALEWLATICWEDSKGYNPSLKSRLTISKDTSKNQAVLTMTNMDPVDTATYYCARREDSGYFWFPYWGQGTLVTVSSASTKGPSVFPLAPSSKSTSGGTAALGCLVKDYFPEPVTVSWNSGALTSGVHTFPAVLQSSGLYSLSSVVTVPSSSLGTQTYICNVNHKPSNTKVDKKVEPKSCDK |  |  |  | ~0.1 µg/mL |

Reference: US20230406950A1 (LYVGEN BIOPHARMA, published 2023)
